Numbering of substitutions follows the chain as printed. Numbers in names are those of the source.
B1: T8V/S10A/K15L: variant Fyn SH2 domain: Thr position 8 to Val, Ser position 10 to Ala, Lys position 15 to Leu; SEQ ID NO:17 (protein)
chain: APVDSIQAEEWYFGKLGRKDAERQLLSFGNPRGTFLIRESETVKGAYALSIRDWDDMKGDHVKHYLIRKLDNGGYYITTRAQFETLQQLVQHYSERAAGLCCRLVVPCHKG
modifications: Synthetic construct T8V/S10A/K15L
B2: T8I/S10A/K15L: variant Fyn SH2 domain; SEQ ID NO:16 (protein)
chain: B1 chain with V43I
modifications: Synthetic construct T8I/S10A/K15L
B3: A8V/S10A/K15L: variant human Grb2 SH2 domain, Met55 to Pro158 with A8V, S10A, K15L substitutions; SEQ ID NO: 22 (protein)
chain: MKPHPWFFGKIPRAKAEEMLSKQRHDGAFLIRESESVPGDFALSVKFGNDVQHFLVLRDGAGKYFLWVVKFNSLNELVDYHRSTSVSRNQQIFLRDIEQVPQQP
modifications: Synthetic construct Grb2_triple
B4: T8V/C10A/K15L: variant human Src SH2 domain, position 8 Val, position 10 Ala, position 15 Leu; SEQ ID NO:21 (protein)
chain: DSIQAEEWYFGKITRRESERLLLNAENPRGTFLVRESETVKGAYALSVSDFDNAKGLNVKHYLIRKLDSGGFYITSRTQFNSLQQLVAYYSKHADGLCHRLTTVCPTSK
modifications: Synthetic construct T8V/C10A/K15L

Assays:
[1] = tested on: seven fluorescein-labeled pTyr-containing peptides; experiment: in-solution fluorescence polarization binding assay, set of seven peptides; details: average over seven peptides, relative to the wild type of the same SH2 domain
Protocol: (§1) Each peptide was synthesized on the TentaGel amide resin (INTAVIS Inc.) and N-terminally labeled with fluorescein using NHS-fluorescein (Thermo Fisher Scientific). Each of the 13 variant and the wild-type SH2 domain was produced by overexpression in the Escherichia coli BL21(DE3) strain cultured in LB media (EMD Chemicals). Expression was induced by 0.3 mM isopropyl β-D-1-thiogalactopyranoside (IPTG), and the cell culture was incubated for 5 hours at 37° C. The cells were harvested by centrifuge, and broken on ice, in buffer solution containing 20 mM sodium phosphate, 0.1 M NaCl, 20 mM imidazole, 1 mg/ml lysozyme and 1% Triton-X 100, adjusted at pH 7.8. Affinity purification was performed with the Ni-NTA agarose resin (Qiagen Inc.), according to the manufacturer's instruction. The purified material was dialyzed against phosphate-buffered saline (PBS), pH 7.4, at 4° C. overnight. Measurements of fluorescence polarization were conducted by titrating the SH2 domain concentration, while keeping the peptide concentration constant. Kd values were calculated with the GraphPad Prism software, by assuming the one-site binding model (GraphPad Software).
(§2) The determined Kd values of interaction between the 14 SH2 domains (including the wild-type) and seven peptides were listed in FIG. 7(a).
The wild-type and variant Src SH2 domains were expressed in E. coli BL21(DE3) strain grown in the LB media, by inducing protein expression with 0.3 mM IPTG, and incubating the cell culture at 30° C. for six hours. Cells were harvested by centrifuge, and broken on ice in buffer solution containing 20 mM sodium phosphate, 0.1 M NaCl, 20 mM imidazole, 1 mg/ml lysozyme, 1% Triton-X 100, adjusted at pH 7.8. Affinity purification was performed with the Ni-NTA, agarose resin, according to the manufacturer's instruction. […]
Fluorescence polarization assay was conducted to determine Kd values of the interaction between the wild-type or variant Src SH2 domain and seven fluorescein-labeled pTyr-containing peptides (FIG. 9a).

[2] = tested on: non-phosphorylated fluorescein-GGYGG peptide (SEQ ID NO: 24); experiment: fluorescence polarization binding assay, non-phosphorylated GGYGG peptide
non-phosphorylated fluorescein-GGYGG peptide (SEQ ID NO: 24), sequence (as listed by the source): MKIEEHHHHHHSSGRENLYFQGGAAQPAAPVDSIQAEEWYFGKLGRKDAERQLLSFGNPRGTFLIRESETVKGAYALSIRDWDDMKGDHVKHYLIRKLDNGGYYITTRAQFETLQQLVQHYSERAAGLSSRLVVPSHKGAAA
Protocol: as §1, §2

EGFR = biological target: T1, EGFR (Homo sapiens, UniProt P00533); experiment: immunoprecipitation of GFP-fused SH2 domains with EGFR in HEK 293 cells; type: cell-based; details: GFP-fusion expressed in HEK 293 cells, EGF 100 ng/ml, anti-GFP and anti-EGFR antibodies
T1 construct: endogenous in cells; host or cells: HEK 293
Text: The three variant SH2 domains mentioned in the previous sentence were dubbed as 8V/10A/15L-substituted SH2 domains, or the TrM SH2 domains, in the following descriptions, as well as in FIG. 11 and FIG. 12. The wild-type (Wt) and TrM SH2 domains, subcloned into the pEGFPC2 vector, were expressed in the HEK 293 cells as a GFP-fusion protein. Methods used in this and the following sections are described below.
Anti-GFP rabbit polyclonal antibody was purchased from Sigma-Aldrich. Anti-EGFR rabbit polyclonal antibody was purchased from Millipore. Anti-p44/42 MAPK (Erk1/2) mouse monoclonal antibody, and anti-phospho-p44/42 MAPK (Thr202/Tyr204) mouse monoclonal antibody were purchased from Cell Signaling. HEK 293 cells were grown in Dulbecco's modification of Eagle's medium (DMEM, Sigma-Aldrich) supplemented with 10% fetal bovine serum (FBS, SAFC Biosciences), 50 units/ml penicillin and 50 μg/ml streptomycin (GIBCO Invitrogen Corp.) in a humidified atmosphere of 5% CO2 in air at 37° C. EGF (Invitrogen) at a final concentration of 100 ng/ml was added to the medium at the indicated time point. Transient transfections were carried out with jet-PEI (PolyPlus-Transfection; Illkirch, France) according to manufacturer's instruction.
HEK 293 cells were transfected with the SH2 domain construct subcloned in the pEGFPC2 vector, and incubated in serum-containing full medium for 24 h followed by serum-starvation for 16 h and then EGF (100 ng/ml) treatment for 10 min, pervanadate treatment for 10 min. The whole cell lysates were prepared and subjected to IB analysis to detect phosphorylated Erk and total Erk.
HEK 293 cells were lysed with cold lysis buffer (1% NP-40, 50 mM Tris-HCl pH 7.4, 150 mM NaCl, 2 mM EDTA, 50 mM NaF, 10% Glycerol and protease inhibitor cocktail diluted at 1:1000). After centrifugation at 13,000*g for 15 min, the supernatants were collected. After clearance of the lysate with appropriate pre-immune serum and protein G (Roche), immunoprecipitation (IP) and immunoblotting (IB) were performed. […]

[3] = tested on: tyrosine-phosphorylated proteins from HeLa cell lysate; experiment: GST pulldown assay, pervanadate-treated HeLa cell lysate; type: binding; details: GST fusion, compared to the Wt SH2 domain, 4G10 immunoblot
Protocol: The wild-type (Wt) and triple mutant (TrM) Fyn SH2 domains (Ala^139-Gly^249) were respectively subcloned into the pETM30 vector (Dümmler, et al. Microb. Cell Fact. 4, 34 (2005)). The Fyn SH2 domain constructs contain a FLAG tag sequence ([…]) (SEQ ID NO: 27) at the C-terminus. To create the GST control vector, a stop codon was inserted after the GST tag sequence of the original pETM30 vector. The GST and GST-SH2 proteins were expressed in E. coli BL21(DE3). HeLa cells were treated with 50 μM pervanadate for 10 min at 37° C. HeLa cells were lysed on ice in lysis buffer containing 0.5% NP-40, 50 mM HEPES pH 7.4, 1 mM magnesium chloride, 150 mMKCl, and the COMPLETE protease inhibitor cocktail (Roche). The GST pulldown assay was conducted as described (Li et al. J. Biol. Chem. 278, 3852-3859 (2003)).

[4] = biological target: fluorescein-GGpYGG peptide (SEQ ID NO: 23); experiment: fluorescence polarization binding assay, GGpYGG peptide
[5] = tested on: phosphorylated proteins (ALK) from H370 cell lysate; experiment: GST pulldown, H370 cell lysate with ALK activation by mAb46; type: binding, human; details: GST fusion, compared to the Wt
phosphorylated proteins (ALK) from H370 cell lysate, sequence (Q9UM73 1060-1620 limits assumed): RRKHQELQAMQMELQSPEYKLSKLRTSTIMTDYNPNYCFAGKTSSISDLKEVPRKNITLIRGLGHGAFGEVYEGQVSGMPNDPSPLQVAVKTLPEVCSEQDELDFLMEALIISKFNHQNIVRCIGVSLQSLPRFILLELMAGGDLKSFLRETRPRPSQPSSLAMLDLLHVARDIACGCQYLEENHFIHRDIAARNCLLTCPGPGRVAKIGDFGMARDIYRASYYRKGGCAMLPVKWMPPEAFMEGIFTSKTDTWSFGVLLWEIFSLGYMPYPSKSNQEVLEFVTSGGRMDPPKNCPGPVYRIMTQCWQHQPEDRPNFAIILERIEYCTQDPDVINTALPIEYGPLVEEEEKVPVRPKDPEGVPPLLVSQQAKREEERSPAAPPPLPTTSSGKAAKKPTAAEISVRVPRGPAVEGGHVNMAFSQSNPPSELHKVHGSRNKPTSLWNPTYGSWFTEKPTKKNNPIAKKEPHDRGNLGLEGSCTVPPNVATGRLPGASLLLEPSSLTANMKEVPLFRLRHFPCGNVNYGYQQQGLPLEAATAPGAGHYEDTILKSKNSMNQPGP
Protocol: The Wt human Src (hSrc) SH2, the TrM hSrc SH2, and Wt Rous sarcoma virus Src (vSrc) SH2 domains were prepared, respectively, as GST tag fusion proteins. The vSrc SH2 domain is almost identical to the hSrc SH2 domain (there are three-residue differences in the SH2 domain region, and the differences are located outside of the target-binding surface). 5 μg of the GST-tagged SH2 domain was incubated with 500 μg of H370 cell lysate treated with or without the ALK activation antibody mAb-46 at room temperature for 30 min. 20 μl of glutathione sepharose beads was then added for another 30 minincubation at room temperature. As a positive control, the anti-pTyr antibody P-Tyr-100 (Cell Signaling, #9411) was used for immunoprecipitation. 4 μl of the P-Tyr-100 antibody was incubated with 500 μg H370 cell lysate treated with or without the ALK activation antibody mAb-46 for 2 hours at 4° C. Next, 20 μl protein G beads was added for another incubation for two hours at 4° C. The glutathione beads or protein G beads were washed with 1×PBS (phosphate buffered saline) three times. The beads were added to 30 μl 2×SDS loading buffer and boiled for 10 min. The samples were resolved on an 8% Bis-Tris SDS-PAGE gel. The gel was applied to Western blotting to transfer the samples onto PVDF membrane (Millipore) and the proteins were probed with the P-Tyr-100 antibody. […]

[6] = tested on: tyrosine-phosphorylated proteins of U937 cell lysate; experiment: Far-Western blotting, pervanadate-treated U937 cell lysate; type: binding, human; details: GST fusion 3.5 μg/ml
Protocol: The GST protein and GST-Src SH2 TrM were prepared as 3.5 μg/ml concentration in the TBS buffer (50 mM Tris-HCl pH 7.2, 137 mM NaCl). The cultured U937 cells were treated with or without 50 μM pervanadate in PBS for 10 min at 37° C. The cells were lysed in the buffer (0.5% NP-40, 50 mM HEPES pH 7.4, 1 mM magnesium chloride, 150 mMKCl) with sonication on ice, and supernatant was loaded on an SDS-PAGE gel for separation and following transfer to the PVDF membrane (Millipore). The membrane was blocked with 5% milk in TBS-T (0.5% Tween-20 in TBS) overnight at 4° C., and probed with 3.5 μg/ml GST proteins for 1 hour at room temperature. The membrane was washed with TBS-T, and incubated with anti-GST antibody-HRP (horseradish peroxidase) conjugate (Sigma, #A7340) for 1 hour at room temperature. The signal from HRP was detected as enhanced chemiluminescence on an X-ray film.

A549 cells = experiment: cell viability after gold nanoparticle delivery of SH2 protein, EGF treatment, A549; type: cell-based; details: 100 ng/ml EGF, compared with the Wt SH2 domain
Protocol: (§3) The hexa-histidine-tagged SrcWt and TrM proteins were purified to homogeneity in 5 mM HEPES buffer (pH 7.6). 1 nM of gold nanoparticle was mixed with 100 nMWt or TrM variant protein. The MCF-7 and A549 cells were starved six hours before treatment. The cells were then treated with 100 ng/ml EGF for 20 hours. The nanoparticle-protein mixture was applied to cells. Cells were trypsinized and stained using 0.4% trypan blue (Sigma-Aldrich) and viable and total cell numbers were counted haemacytometer with the use of a microscope according to manufacturer's instruction.

MCF-7 cells = experiment: cell viability after gold nanoparticle delivery of SH2 protein, EGF treatment, MCF-7; type: cell-based; details: MCF-7 (no EGF receptor), 100 ng/ml EGF
Protocol: as §3

Row | Molecule | average affinity increase, Kd[wild-type] divided by Kd[variant] [1] | binding to non-phosphorylated peptide [2] | binding to EGFR (immunoprecipitation) (EGFR) | ability to bind tyrosine-phosphorylated proteins (GST pulldown) [3] | Kd [4] | capture of phosphorylated proteins from H370 cell lysate upon stimulation [5] | detection of tyrosine-phosphorylated proteins by Far-Western blotting [6] | cell viability upon EGF treatment (A549 cells) | cell viability upon EGF stimulation (MCF-7 cells)
1 | B1 | 293 fold | did not show detectable binding | strong binding | enhanced ability | – | – | – | – | –
2 | B2 | 86.4 fold | – | – | – | – | – | – | – | –
3 | B3 | – | – | strong binding | – | – | – | – | – | –
4 | B4 | 238 fold | – | strong binding | – | 510 nM | substantially larger amount | broad detection of tyrosine-phosphorylated proteins | reduced cell variability | did not significantly affect cell variability

From patent US10274499B2, “SH2 domain variants” (THE UNIVERSITY OF WESTERN ONTARIO, priority 2012, dated 2019)
